# The supplement of paper PMC12042874
# ± gives the uncertainty stated by the source.
# Test: amyloid nucleation score (Sup35N fusion, yeast selection) (log enrichment); library NNK2; higher = more nucleation; inactive = no reads after selection
# Procedure, shortened: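 The nucleation score is a DiMSum log enrichment of output over input reads, centred on the mode score of non-aggregating sequences. Sequences under 100 input reads were excluded, and reads came from Illumina sequencing of plasmid inserts. Psi-negative yeast expressing Sup35N fused to peptides of 20 random codons were induced with 100 μM copper sulfate for 24 hours and grown 7 days at 30°C on medium lacking adenine and uracil. Random libraries had three technical output replicates.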
row,Substance,amyloid nucleation score
1,PIHNNKHGCFSSERSSFHKM,-1.6 ± 0.75
2,TRAPGRDFVGEGEACALDET,-0.799 ± 0.54
3,PISNAYCMGTNRSLRIGIRC,0.641 ± 0.21
4,NIDSELSCDYD,-0.784 ± 0.76
5,EGIILFRKDRELTGGRLTNV,-0.145 ± 1.1
6,VFYTFMTSALGIRVTRSSCL,1.12 ± 0.22
7,YCNNYG,-2.65 ± 0.75
8,WRLSLGYPVSALQMRMPGTL,2.1 ± 0.22
9,CKGLNMFLLFSHSHSCMLRG,-1.35 ± 0.39
10,TASFK,-0.014 ± 0.76
11,SIELNLPMFSIRVKMCSRGE,2.53 ± 0.15
12,LRSPWLF,-0.687 ± 0.79
13,RYINQ,-0.481 ± 1.1
14,PGCHWISASCGDVLDKGNTG,0.501 ± 0.62
15,RMNSYKLSKVYNT,-0.225 ± 1
16,TPGCF,inactive
17,TLFIMC,0.074 ± 0.54
18,TVSVNLYNFVLQTSY,4.55 ± 0.069
19,ESSFLLNHHT,-0.142 ± 0.79
20,YSVEYFCHMFSLTCFNKF,7.388 ± 0.057
21,ELNLNS,0.695 ± 0.36
22,LFYGNHWAPASWIWN,2.34 ± 0.15
23,YGSLVYVPAYGEISL,-0.921 ± 0.5
24,NTLVSVYEYFSMWGRSCRWS,0.141 ± 0.61
25,FRIGHSHGYLLM,-0.805 ± 1.1
26,SLRMGFTKSVVARGAWRNWV,4.1 ± 0.057

row,Substance,amyloid nucleation score
1,DFDGRRHSDNDLSWNSNF,-1.42 ± 1.1
2,MDGDFSINFMDPSTTCLLYE,inactive
3,LAGLYGNFCISRCSVANQMV,2.08 ± 0.095
4,VKLHSVSYLIFLL,4.8 ± 0.11
5,KMSVLG,-0.936 ± 0.64
6,NCLMLVGNIFWSEESPRLAM,8.041 ± 0.068
7,DVKSAWRLGVGCLTVRAIRE,0.233 ± 0.49
8,FTWLRPRGFS,-0.676 ± 0.27
9,GVSSNGSLCWCVFMKVPAVC,2.98 ± 0.078
10,LWLIKARYFLELRRLESIRQ,0.208 ± 1.1
11,RIENFVWC,-0.688 ± 0.63
12,EHVFMSAHFLLNSQRKKN,-1.9 ± 0.75
13,PVCWAAFRYTYKARMKRWSK,5.06 ± 0.055
14,KPDCVLTTGFTSSLRFIMKK,-0.007 ± 0.55
15,YNSTR,-0.082 ± 0.63
16,WGADSYYMCTKLLGSDCGSN,0.453 ± 0.66
17,PVWGSTCWFDVTWVRFKLFW,2.61 ± 0.11
18,GRSGFYCIHKMSVDTFIQKA,4.27 ± 0.074
19,MNFWMILVKSETYFNDRRPY,7.152 ± 0.061
20,FVNLRFSKVGWYDLF,-0.255 ± 0.65
21,LFLLFFRFFQMGDLHYIIAI,-0.661 ± 1.1
22,FCNVKLLLVGWCRVSVKKGV,2.12 ± 0.28
23,SSFCNISAAGYFHIVMLRVV,-0.3 ± 0.5
24,IHMWYSDG,-1.25 ± 0.75
25,TVFLTGRFCWVFPRSCYLSY,-0.758 ± 0.33
26,YMASWVSSAGSFV,1.05 ± 0.29

row,Substance,amyloid nucleation score
1,TDYHMFYRLDCLPLTTTCPV,4.88 ± 0.087
2,SHFFAQPGNGMRWCVRIKVC,0.744 ± 0.8
3,SEVGEGSPIDMTLARSGSVF,0.913 ± 0.81
4,KDRRRVDMLRLGR,1.36 ± 0.26
5,STVFYMNLQGVFRTVSWV,2.8 ± 0.18
6,NMNLVILDTHN,2.86 ± 0.13
7,YWFFNWEWSGLVVYVGRFSA,inactive
8,SCTWRRGFSSQVKYMNRQSI,0.989 ± 0.13
9,TFIAMSQALMTVYIGALLQW,3.57 ± 0.061
10,VDVHIIIMKPDSWVCPNRCS,inactive
11,LNLLNPWYSCKQSRVYNGYI,-1.31 ± 0.54
12,CHVYYVQFVLAD,-0.604 ± 0.76
13,TRPRVKPWAMFRNIYD,-1.33 ± 0.44
14,VSRSSRWYNRIGMVRSVWNK,-0.139 ± 0.21
15,FISMNLEVSN,-0.26 ± 1
16,MFASNLRKMSGGGVI,-0.694 ± 1.1
17,LKNVLTCESVINQLR,-0.464 ± 0.39
18,RTTWPHLVGSRILFYTSHSM,-0.392 ± 0.63
19,YGLLGFFGMQCCHNLCMYRG,2.02 ± 0.13
20,HVYYTVNLVLVNLYPLYFFT,5.855 ± 0.041
21,GTARDGRYSSMKVSDRYFVR,inactive
22,FMECVSNNRMELVAGNEKGC,0.082 ± 0.27
23,TWKVDF,inactive
24,NVRVRLET,0.027 ± 0.27
25,FDVSWMARVELSIM,-0.018 ± 0.33
26,YAFSCFKSNVFWKGTGNRRG,-0.973 ± 0.63

row,Substance,amyloid nucleation score
1,IVGHM,-0.5 ± 0.21
2,YSCRGEVKLKCDTSVGGPRR,0.922 ± 0.2
3,RSLTCLSVKGNLTHTINVCY,6.08 ± 0.069
4,YADCVYDREPYTV,inactive
5,EVSNRCRRLSTRRVHSVLVG,1.13 ± 0.25
6,FIFVVMVMVWFWTGLCLSYN,inactive
7,NPLYEGSFFWGWKFIDFRQH,0.131 ± 1
8,TVVFYNNIIFGFDFSSAKWL,6.21 ± 0.067
9,IVHYGETNG,0.494 ± 0.38
10,NRFMN,-0.3 ± 0.46
11,TWGQVII,-0.465 ± 1
12,RFWDQACQAFMSSMVEGPVD,-0.548 ± 1.1
13,VQPYSILNFRMELKANRLEL,4.4 ± 0.052
14,ADRWYYMQPNTLCSNVTANA,1.26 ± 0.37
15,WWWPSVWTCRM,-0.716 ± 0.78
16,VNGWDWQRYLRILKCFVVY,0.615 ± 0.36
17,GQLSVVKCRSY,1.14 ± 0.29
18,LITRGCCL,-0.33 ± 0.76
19,FHSPLCSCQSSLKVEWGHSE,inactive
20,GVENKDRVSPNYVG,-0.424 ± 0.49
21,GLLAPLSSCLCVRDFVGLKA,-0.187 ± 0.3
22,IIINFRVAINDWGFLSVSID,5.515 ± 0.027
23,HYPQYCFFARKIFITCGYME,5.22 ± 0.061
24,ITISLLLGHYDCCCVTLLQE,7.263 ± 0.027
25,SAQWGREMVISARHRVPVEL,4.92 ± 0.079
26,LLYNGVILLECGWYMVSVAS,-0.071 ± 0.29

row,Substance,amyloid nucleation score
1,LAQVFIIEAPFMTKFLPMLR,2.81 ± 0.097
2,LREGCVTLLS,0.27 ± 0.36
3,WSMSVLVSPHVMFKNAMEVL,0.22 ± 0.28
4,NEIQANNCGPKILKLYQNMR,0.579 ± 0.8
5,FLWHCYNFLKAGS,inactive
6,LLGSYI,inactive
7,LVFVAGRILMMIFFVSGLAI,2.59 ± 0.09
8,VWRTGRGYGRMWFLHISSMY,-0.207 ± 0.34
9,RSGSQENKVSECAQDTTFSV,0.367 ± 0.54
10,KFCCT,3.47 ± 0.1
11,LTRCPYGSCLNWERWVGYMM,1.93 ± 0.1
12,WFACYMRIAGTGQEVMYVTM,0.424 ± 0.24
13,DWWERGRVGSGCQSLGVTLH,0.923 ± 0.81
14,YSIIFWCFKWYLIQGWLECA,inactive
15,SIIYISWSVRHHYVKVG,-0.666 ± 0.46
16,RGVVWRR,0.23 ± 0.63
17,RKCSSVLRGHTVQDVHFFSA,-0.056 ± 0.56
18,NLYSLPQEDRSLNDEKGG,0.121 ± 0.49
19,VKAWYWLKARFVLWTVGARL,-0.093 ± 0.79
20,TGPIWLCYACAWTNTYTPAE,9.357 ± 0.055
21,NEADE,-0.119 ± 0.46
22,VEGLNCVLSDNKVANGS,-0.791 ± 0.44
23,LYIHVDWLAWKTHVRQTKVT,-0.455 ± 1.1
24,FAFKTLVWHRGVCRFPGARL,inactive
